Data on 2 molecules can be found in PMC6838674, “Apelin-36-[L28A] and Apelin-36-[L28C(30kDa-PEG)] peptides that improve diet induced obesity are G protein biased ligands at the apelin receptor” (Peptides, 2019).

For assay [1], the target named is T1, apelin receptor (Rattus norvegicus), Q9JHG3.
T1 chain: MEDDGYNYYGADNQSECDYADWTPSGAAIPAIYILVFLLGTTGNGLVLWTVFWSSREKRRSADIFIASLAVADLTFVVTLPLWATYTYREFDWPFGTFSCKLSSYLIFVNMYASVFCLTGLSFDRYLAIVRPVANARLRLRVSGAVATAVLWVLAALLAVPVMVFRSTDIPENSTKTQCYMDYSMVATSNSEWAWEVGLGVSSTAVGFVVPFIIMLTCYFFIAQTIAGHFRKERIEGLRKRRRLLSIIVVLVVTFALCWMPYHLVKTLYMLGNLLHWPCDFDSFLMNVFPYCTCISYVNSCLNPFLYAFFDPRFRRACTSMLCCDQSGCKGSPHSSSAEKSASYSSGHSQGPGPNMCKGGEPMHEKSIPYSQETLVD
The assay can be described thus: radioligand competition binding, heart homogenate. The conditions noted are these: modification not given. On the technique in general: Displacement assays read how much labelled ligand stays bound in the presence of the test substance.

In assay [2] the target is T2, apelin receptor (Rattus norvegicus), Q9JHG3.
T2 chain: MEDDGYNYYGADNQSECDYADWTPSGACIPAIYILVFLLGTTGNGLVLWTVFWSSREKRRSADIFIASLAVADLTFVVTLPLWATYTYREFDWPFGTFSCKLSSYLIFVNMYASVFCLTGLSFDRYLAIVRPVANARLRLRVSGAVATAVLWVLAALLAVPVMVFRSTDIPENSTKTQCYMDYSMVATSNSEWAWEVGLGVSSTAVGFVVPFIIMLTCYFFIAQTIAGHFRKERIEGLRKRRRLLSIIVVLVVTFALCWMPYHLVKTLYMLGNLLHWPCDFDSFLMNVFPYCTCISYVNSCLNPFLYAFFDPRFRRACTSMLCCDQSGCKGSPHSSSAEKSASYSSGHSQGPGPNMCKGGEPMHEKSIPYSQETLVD
The assay can be described thus: radioligand competition binding, heart homogenate. The settings on record: modification not given.

Ends that are not written are not given here.

One may read the Ki as a measure of affinity in units of concentration, obtained from inhibition or displacement.

For LVQPRGSRNGPGPWQGGRRKFRRQRPRASHKGPMPF (not fully specified) [apelin-36-[L28A]], the inhibition constant Ki in assay [1] turned out to be 0.309 nM. Molecule LVQPRGSRNGPGPWQGGRRKFRRQRPRCSHKGPMPF [apelin-36-[L28C(30kDa-PEG)]] returned an inhibitory constant (Ki) in assay [2] of 8.71 nM.
